According to the DeepSol protein solubility set:

Test: soluble on expression in E. coli; label from the status in PepcDB or PDB records

Row | Sequence | soluble on expression in E. coli
1 | MINHKIFPTADAVVKSLADDMLAYSQQGQPVHISLSGGSTPKMLFKLLASQPYANDIQWKNLHFWWGDERCVAPDDAESNYGEANALLFSKINMPAQNIHRILGENEPQAEAERFAQAMAHVIPTENGTPVFDWILLGVGADGHTASLFPGQTDYADANLSVVASHPESGQLRVSKTAKVLQAAKRISYLVLGAGKAEIVEQIHTTPAEQLPYPAAKIHSTSGVTEWYLDSDAAAKIA | soluble
2 | MSILEQVQPIETMLPERYYTMSTEDMEKRVREIKEKMGKMLFIPGHHYQKDEVVQFSDAVGDSLQLAQVAASNKDAKYIVFCGVHFMAETADMLTTDDQVVILPDMRAGCSMADMADIEQTERAWKELTKLFGDTMIPLTYVNSTAAIKAFCGRNGGATVTSSNAKQMVSWAFTQKERLVFLPDQHLGRNTAYDLGIPLDKMAVWDPHTDSLEYDGDIEEIQVILWKGHCSVHQNFTVKNIESVRKNHSDMNIIVHPECCYEVVAASDYAGSTKYIIDMIESAPPGSKWAIGTEMNLVNRIIQQHPDKEIVSLNPFMCPCLTMNRIDLPHLLWALETIERGEEINVISVDKQVTAEAVLALNRMLERV | not soluble
3 | MAHHHHHHMMEHLNIEKEAVTYASLIAALHNPQYVLPGHTAKELEAHLPGGVSSQQHTNVGEGGGTVTEGQASGPTSNSVDLSGTKTSYEAYRQERIEAGMAWFAACHSAHRTADVFNELLYLLRAKSHWCQFNTVLVQLRGNAVVTETEWPERLSEAGEGVPPSASAAGGASPGSVTILAPRWSTWPNGKTYELLIQRARYVHQWEVMWALYEEMIATGVHGTARVYEVLLLEARSHPPQAVLAAERSGNSDGASSFLLRLYEELRRNGSDVHSFTGTVNVVNAWTRARSRSNRWQS | not soluble
4 | MSLDNGEAAIIIGEFYKRNDQWKFRALSEGSAYGLSAFGRKIGLEVDDRHPRRPSGGSGGPAGGPRHESATGTAFVVGPAHVMTCAHVIEDMGVFYINSLEGRYKAEAVVIDRRNDIALLRVQGAPPLSAVTFREGQGCEPGDTVAVLGYPLASISGGGLQVTQGGISGLFGLHNDASLFQFTAPIQPGSSGSPLFDNGGAVIGMVTSTVPDGQNMNFAVKSALLMSFLQACRIDEGHHHHHH | not soluble
5 | MGSSHHHHHHSSGLVPRGSHMAPSRRERERERRREQIIRAAEKAFFARGYDRVTMDEIAEEAEVNKALLYYYFKNKESLFFAVNLYGVRILHSMYRRCLELDTDGYGKVRAMVEALYSFSKEHPDYFRIYCYSGTERFELSESEDAREIVDLRTGMWRLMVEAIMEGMNDGSIRSDLDPVELSIYIHTLAINALNLDFTSRMVLEARNISRDRFWEDLEVFLESALRP | soluble
6 | MSLVDIHSHIIPGIDDGSNSLETTLNMMSIAKEAGVTKMVATSHYYRGKFENSISVIEKKANELNYTLKEKGVDIDVIPGQEVFIDNYTLKDYKEGIIGTINNTDYMLVEFDMMSLGENAIDTLYELQIKGIKPIIAHPERYTYIQKDIYKINELMDENIYFQVNAGSIEGLFGKTVQKTALKLVEEGVISFIASDAHSAGKRCPGYEKALHDLTKIDKTLAEKFIKNSNLLLENEKIENKVRKLKKKKTFFSFLKEGHHHHHH | soluble
7 | MKLIVVTTPTFFVEEDKIITALFEEGLDILHLRKPETPAMYSERLLTLIPEKYHRRIVTHEHFYLKEEFNLMGIHLNARNPSEPHDYAGHVSCSCHSVEEVKNRKHFYDYVFMSPIYDSISKVNYYSTYTAEELREAQKAKIIDSKVMALGGINEDNLLEIKDFGFGGAVVLGDLWNKFDACLDQNYLAVIEHFKKLKKLADLEHHHHHH | soluble
8 | MKESLLTLTEKIMFTTTVLKPTITTPITMLITTMRTLVAMKIRHYWKMMAIKDRKIQIPPVKYQMELSIRTLEINLLKNVKETEANLLKRRTDRENKRHYEFGFFYNLRIHNIYIPTSFFFFNSIV | soluble
9 | MHRVHGTLHASFTIECRNMFKRFFLALIGVGILLSESTQASESPPYSMVLLTENFPPFNMAVDGKNFAQENNIDGIAAEVVREMFKRANIGYSMTLRFPWDRVYKLALDKPGYGVFSTTRLPEREKLFKWIGPLGSYDWIMLARGDSPITLASLEQAKDYRIGAYKGDAIGERLNAMGLNPILMLRDRDNVKKLANGQIDLWAVGDPVGRYLAKLEGVSGFKTALRFNSAELYLAVNKSTPDEIVNRLQAALDQMRTEGWVDAVKARYQLEHHHHHH | soluble
10 | TDNTKPNRMPVAPYWTSPEKMEKKLHAVPAAKTVKFKCPSSGTPQPTLRWLKNGKEFKPDHRIGGYKVRYATWSIIMDSVVPSDKGNYTCIVENEYGSINHTYQLDVVERSPHRPILQAGLPANKTVALGSNVEFMCKVYSDPQPHIQWLKHIEVNGSKIGPDNLPYVQILKTAGVNTTDKEMEVLHLRNVSFEDAGEYTCLAGNSIGLSHHSAWLTVLEALEER | soluble
11 | MMAKDFYSAIEDRRSIYAISKEQVVSDEKIQEVIYHAVKHTPSAFNSQSARVVVLLGEQHDKLWDITKETLRKIVPENNFAPTEEKMNAFKSGYGTVLYFEDSEVVESLQANFALYKDNFPTWSQQSSGMLQFAIWTALEIEGFGATLQHYNPLIDEEVRKEWDVPANWKLIAQMPFGKPVVQAGEKEFQPLENRVKIYKLEHHHHHH | soluble
12 | NLREDGEKAAREVKLLLLGAGESGKSTFLKQMRIIHGQDFDQRAREEFRPTIYSNVIKGMRVLVDAREKLHIPWGDNKNQLHGDKLMAFDTRAPMAAQGMVETRVFLQYLPAIRALWEDSGIQNAYDRRREFQLGESVKYFLDNLDKLGVPDYIPSQQDILLARRPTKGIHETHFTFKDLHFKMFDVGGQRSERKKWFECFEGVTAIIFCVALSDYDQVLMEDRQTNRMHESMKLFDSICNNKWFTDTSIILFLNKKDLFEEKIKKSPLTICYPEYAGSNTYEEAAAYIQCQFEDLNKRKDTKEIYTHFTCATDTKNVQFVFDAVTDVIIKNNLKDCGLF | soluble
13 | MAHAAAVEENQLQSLKDVAKQAPVHRKLDIQEWKTAEGAKVLFVEAHELPMFDLRLTFAAGSSQDAGTPGLSMLTNAMLNEGVPGKDTTAIAAGFEDLGASFSNGSYRDMAVAGLRSLSEADKRTQALKLFEQVIGQPTFPEDALARIKNQVLAGFEYQKQNPGKLAGLELFKRLYGEHPYAHSSDGDEKSVPTISREQLQAFHKKAYAAGNVVIALVGDLSRQEAEAIAAEVSKALPQGPALAKTVQPETPKPGLTHIDFPSEQTHLMLAQLGIDRQDPDYAALYLGNQILGGGGFGTRLMDQVREKRGLTYGIYSGFTAMQARGPFMINFQTRAELSEGALKLVQDIVRDYLANGPTQKELDDAKRELAGSFPLSTASNADIVGQLGAIGFYGLPLDYLESFLKQVEGLSVEQVRTAMAKHLDADAFVIVSAGPSVPQKLEHHHHHH | not soluble
14 | MHGTCLSGLYPVPFTHNSHDYPHFNIYISFGGPKYCITALNTYVTPLLHRILTTQFIYTYANITKKSPLKSPKHKNILFFNHNT | soluble
15 | TNDEETIQQQILALSADKRNFLRDPPAGVQFNFDFDQMYPVALVMLQEDELLSKMRFALVPKLVKEEVFWRNYFYRVSLIKQSAQLT | soluble
16 | RKGHFSRCPKQYKHYCIKGRCRFVVAEQTPSCVCDEGYIGARCERVDLFY | soluble
17 | SKKEHVLHCQFSAWYPFFRGVTIKSVILPLPQNVKDYLLDDGTLVVSGRDDPPTHSQPDSDDEAEEIQWSDDENTATLTAPEFPEFATKVQEAINSLGGSVFPKLNWSAPRDAYWIAMNSSLKCKTLSDIFLLFKSSDFITRDFTQPFIHCTDDSPDPCIEYELVLRKWCELIPGAEFRCFVKENKLIGISQRDYTQYYDHISKQKEEIRRCIQDFFKKHIQYKFLDEDFVFDIYRDSRGKVWLIDFNPFGEVTDSLLFTWEELISENNLNGDFSEVDAQEQDSPAFRCTNSEVTVQPSPYLSYRLPKDFVDLSTGEDAHKLIDFLKLKRNQQEDD | soluble
18 | MGSSHHHHHHSSGLVPAGSHMASMTGGQQMGRGSMSLQVNLLNNTFANPFMNAAGVMCTTTEELVAMTESASGSLVSKSCTPALREGNPTPRYQALPLGSINSMGLPNNGFDFYLAYAAEQHDYGKKPLFLSMSGLSMRENVEMCKRLAAVATEKGVILELNLSCPNVPGKPQVAYDFDAMRQCLTAVSEVYPHSFGVKMPPYFDFAHFDAAAEILNEFPKVQFITCINSIGNGLVIDAETESVVIKPKQGFGGLGGRYVLPTALANINAFYRRCPGKLIFGCGGVYTGEDAFLHVLAGASMVQVGTALQEEGPSIFERLTSELLGVMAKKRYQTLDEFRGKVRTLDGTAESTR | soluble
19 | QLGMKGYADTIDRQRMQTQAQFVLEKMSREIRHAVPNSFHVPTGSTNCLEFMPIEYSGFYTLTNNNLEFLLGNDSTLNPIPADRWMVINPSRYEDLQSASPQSLAVGNLAKTGD | not soluble
20 | SAAAIAASALPGAFGRLVSVCSRSILASQGSGSASLWSASRRFNSQSASYPQGYVPKTSLSSPPWQEVVLPDPVEETRHHAEVVKRVNELIATGQYGRLFAVVHFASHQWKVTAEDLILIENELDIKCGERIRLEKVLLVGADNFTLLGKPLLRKELVRVEATVIEKTESWPKINMKFRKRKNFRKKKIIVNPQTILRINTIEIAPRLL | soluble
21 | MACQTGIRANAALRNALNLGKQAKLRLIKIVVNNEEMTPNYEFAGTANWRDDWRACLPDCVDAYEPCFILFRLNTITEWVLITFVDDRAPVREKMLLAATCATFKSEFGQCYIEHEKHVTDLKDLTLNAFEAWLKAKTELGPMSEVERELHNAQQERAAIAHAGPQHMKGVAFPVDRNAEEALRQLASQKLSFVQLSVDTLNEAIKLEGTLESLEPSQLASKVPRDKPRYTFYNFDHTWEGVPQQCTLFIYSLPSSGSSIKERMLYSSCKGPFLSAAQNQYGVVITNKMEVDARDDLSEKALLEVIHPLPVEAPKQFSRPAPPRAGPRRITKV | not soluble
22 | MSLQAVTLSVLVVEDTDCERFYITHLLRQFGWLVESRSNGKAALDYLQQNEVHILVSDWRMPEMSGIELCQIVKNNHLPPFVILLTANNQTADIVLGIEAGADDFICKPFLPELLKVRMLAAMRIVQLQHNLSRNEGHHHHHH | not soluble
23 | NALPAGNYLVASPQRYNPPGVLDSQTELPRLLAQARREVRVQLLDYAPLSYGPDKTRPYYAVIDNAIRSAAARGVSIKLMVSDWNTGMPEVAYLKSLALVPNVQVRIVTLPVAAEGFIPYARVIHSKTMDIDDQVAWVGTSNWLGGYLDNSRNLEVVMHDSTMAKRIGVLHEQLWDGPYAKPIDINRDYPEPH | not soluble
24 | MNDIPVQHNKNRCPSHPGDLLAEIIPATGKTKLEIAQMLGISRQHLYAILRAKKPISPSVSARLGKLFGDGAAVWLRMQAAYDAWHAEHETDVSQIPTLHVV | not soluble
25 | MKCPFCAHPDTRVADSRLMEERNAVRRRRHCPNCGKRFGTLETAELKMPAVIGPDKKRSPFNAQRLRNDLTAAARKSALTPEQIDETVRLTEHRLYTSGQRDIPSAALADMVLKELLRQDTEAAVRFAALHKRFDNPADFASWLAQAVKTGGKA | not soluble
26 | MGQLIDGVWHDTWYDTKSTGGKFQRSASAFRNWLTADGAPGPTGTGGFIAEKDRYHLYVSLACPWAHRTLIMRKLKGLEPFISVSVVNPLMLENGWTFDDSFPGATGDTLYQNEFLYQLYLHADPHYSGRVTVPVLWDKKNHTIVSNESAEIIRMFNTAFDALGAKAGDYYPPALQTKIDELNGWIYDTVNNGVYKAGFATSQEAYDEAVAKVFESLARLEQILGQHRYLTGNQLTEADIRLWTTLVRFDPVYVTHFKCDKHRISDYLNLYGFLRDIYQMPGIAETVNFDHIRNHYFRSHKTINPTGIISIGPWQDLDEPHGRDVRFGLEHHHHHH | soluble
